The source of these data is patent publication US20140248291A1, “Modulation of Cellular Migration” (THE UAB RESEARCH FOUNDATION, priority 2011, published 2014).

The subject of assay [1] is D54-MG cells. In words: calcium imaging (Fura-2) of D54-MG cells after neuroligands. In kind it is cell-based, human. As to the method:
D54-MG cells were plated on 35-mm glass bottom dishes (MatTek, Corp., Ashland, Mass.) at ˜100×10^3 per dish and cultured for 2 days. pTRIPZ transfected cells, after stable selection, were plated at a density of ˜20×10^3 per dish and treated with […] doxycycline for 4 to 5 days to allow for sufficient protein knockdown. All cells were loaded in serum-free culture medium for 45 min with the ratiometric Ca^2+ dye Fura-2-acetoxymethylester (5 μmol/L; TEFLABS, Austin, Tex.) reconstituted in 20% wiv pluronic acid in DMSO (Invitrogen, Carlsbad, Calif.). Cells were rinsed with serum-free medium and allowed to rest in 7% serum-containing medium for 45 min at 37° C. The glass-bottom dishes were placed in an environmental chamber mounted on an inverted microscope. Cells were allowed to equilibrate in the chamber for 15 min before calcium images were collected. Following equilibration, recordings were obtained with an Olympus Disk Spinning Unit (DSU) fluorescent imaging microscope where cells were alternately excited at 340 and 380 nm using an x-cite illumination light source. Emitted light was collected at >520 nm. Images were digitized online using Slidebook 4.2 software (Intelligent Imaging Innovations, Denver, Colo.), and 340:380 nm ratios were obtained every 15 seconds. Following a 5 minute baseline recording every 15 seconds, BK was applied to the cells and imaging continued every 15 seconds for 30 or 60 minutes. In a subset of experiments, BK antagonists, HOE-140 and Bradyzide were applied to the cells. These experiments were repeated at least three times and data were pooled for statistical analysis.
Glioma cells respond to environmental clues as they invade the brain. It has been previously shown that the exposure of glioma cells to certain neuroligands induces increase in intracellular calcium concentrations. In this series of experiments, we investigated Ca^2+-responses in cultured D54-MG glioma cells, after addition of acetylcholine (ACh), ATP or BK. Glioma cells were loaded with the ratiometric Ca^2+-dye FURA2-AM, and imaged over 30 min.

Assay [2] deals with D54-MG-GFP glioma cells. The assay can be described thus: Transwell migration assay. The class given is cell-based, human. The following applies: 5 h, neuroligand at bottom of filter. As to the method:
The day before the experiment was performed, ˜70% confluent dishes of cells were prepared. Transwell migration Fluoroblock cell culture inserts (BD Biosciences, San Jose, Calif.) with 8 μm pores were coated overnight with Vitronectin (BD Biosciences, San Jose, Calif.) at a concentration of 5 μg/ml in PBS. The following day, inserts were blocked with 1% fatty acid-free bovine serum albumin for 1 h. Inserts were then washed two times in PBS, and 400 μl of Migration Assay Buffer (MAB, 0.1% fatty acid-free bovine serum albumin in serum-free media) was added to the bottom of each well. Cells were rinsed once in PBS and were lifted off the dish by the addition of 0.5 mm EGTA. Cells were rinsed twice by centrifugation and resuspended in MAB and counted. Forty thousand cells were plated on the top of each filter and allowed to adhere for 30 min before drug was added. When BK+/−antagonists was added to the filters, it was added only to the bottom of the filter for chemotaxis. For migration assay, D54-EGFP MG cells were allowed to migrate for 5 hours, washed with PBS, fixed with 4% paraformaldehyde 15 minutes at room temperature, washed thrice and counterstained with DAPI for 5 minutes at room temperature. Invasion assay was performed similarly. Matrigel cell cultured inserts (BD Biosciences, San Jose, Calif.) with 8 μm pores were pretreated Vitronectin and blocked as described above. […] The number of nuclei that migrated through pores was counted. All counts per treatment were averaged and SE values were calculated. […]
To investigate the hypothesis that BK promotes glioma migration in vitro, we used Transwell migration assay which conveniently permit examination of cell migration across a membrane barrier with 8 μm pores towards vitronectin, a chemo-attractant extracellular matrix protein. This frequently used assay allows a quantitative study of drug effects with regards to drugs acting as motogens or as chemo-attractants. […]

The target in assay [3] is B2R (Homo sapiens, UniProt P30411). The following applies: cited from earlier work.
Chain of B2R (P30411 whole entry, species assumed): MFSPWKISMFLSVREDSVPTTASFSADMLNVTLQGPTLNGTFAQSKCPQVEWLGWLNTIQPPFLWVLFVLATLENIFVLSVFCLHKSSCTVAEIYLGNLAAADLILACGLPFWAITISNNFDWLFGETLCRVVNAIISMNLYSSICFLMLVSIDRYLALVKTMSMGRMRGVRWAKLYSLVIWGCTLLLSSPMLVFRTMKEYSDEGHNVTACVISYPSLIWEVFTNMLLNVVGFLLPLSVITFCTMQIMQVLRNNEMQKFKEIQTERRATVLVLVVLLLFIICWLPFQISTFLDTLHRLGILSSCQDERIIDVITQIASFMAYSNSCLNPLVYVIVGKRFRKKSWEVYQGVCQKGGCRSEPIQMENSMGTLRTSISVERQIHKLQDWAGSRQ
The target in assay [4] is bradykinin-2-receptor (B2R), human, as expressed on glioma cells (D54-MG, D54-MG-GFP, U251-MG) (human) (UniProt P30411). In words: cell-based or functional assay.
Chain of bradykinin-2-receptor (B2R), human, as expressed on glioma cells (D54-MG, D54-MG-GFP, U251-MG) (human) (P30411 whole entry): as the sequence (P30411 whole entry, species assumed) above

Regarding `CC(=O)OCC[N+](C)(C)C` [ACh, acetylcholine], the “average peak of Ca2+ response” value in assay [1] (50 μM ACh) is listed as 0.23±0.04. Further, the “cells responded (sustained rise in intracellular calcium)” value in assay [1] (50 μM ACh, of 128 cells imaged) was 116.

For `Nc1ncnc2c1ncn2[C@@H]1O[C@H](COP(=O)(O)OP(=O)(O)OP(=O)(O)O)[C@@H](O)[C@H]1O` [ATP], in assay [1] (100 μM ATP), the “average peak of Ca2+ response” value is 0.45±0.05 and the “cells responded / cells imaged” value is 87/146. The “effect on D54-MG cell migration” value in assay [2] is recorded as “failed to alter glioma migration”.

As for `N=C(N)NCCC[C@@H](N)C(=O)N[C@@H](CCCNC(=N)N)C(=O)N1CCC[C@H]1C(=O)N1C[C@H](O)C[C@H]1C(=O)NCC(=O)N[C@@H](Cc1cccs1)C(=O)N[C@@H](CO)C(=O)N1Cc2ccccc2C[C@@H]1C(=O)N1[C@H](C(=O)N[C@@H](CCCNC(=N)N)C(=O)O)C[C@@H]2CCCC[C@@H]21` [Icatibant], in assay [3], the B2R antagonism entry was “potent antagonist”.

On to “HOE-140 (D-Arg-[Hyp3, Thi5, D-Tic7, Oic8]bradykinin) (peptide)”, for which, in assay [4], the Ca2+-response of D54-MG cells to BK in the presence of HOE-140: average peak amounted to 0.15; the Ca2+-response of D54-MG cells to BK in the presence of HOE-140: cells responded was 22 of 162 cells; the directionality of D54-MG cells in a BK concentration gradient in the presence of HOE-140 was 8 of 15 cells; the rat brain slice invasion with BK and HOE-140: cells migrated up to 15 µm was 25.7%. In assay [4], this molecule gave a rat brain slice invasion with BK and HOE-140: cells migrated up to 20 µm of 15.4%; a rat brain slice invasion with BK and HOE-140: cells migrated up to 25 µm of 6.4%; a rat brain slice invasion with BK and HOE-140: cells remaining on the top of the slice of 47.5%; a rat brain slice invasion with HOE-140 alone: cells migrated up to 15 µm of 29.8%. In assay [4], the rat brain slice invasion with HOE-140 alone: cells migrated up to 20 µm was found to be 14.4%, the rat brain slice invasion with HOE-140 alone: cells migrated up to 25 µm came to 3.5% and the rat brain slice invasion with HOE-140 alone: cells on top of the slice was determined as 51.9%.
